In the supplement of paper PMC10567573:
± gives the standard deviation.

Test: protein stability index of a GFP-peptide fusion (GPS, HEK-293T) (PSI 1-6); higher = more stable
[1] = treatment: DMSO, c terminus: a fixed tail appended
[2] = treatment: MLN4924 1 uM, 8 h, c terminus: a fixed tail appended
[3] = treatment: DMSO, c terminus: native
[4] = treatment: MLN4924 1 uM, 8 h, c terminus: native
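Further: 24-mer peptide tiles fused after GFP, lentivirally expressed, FACS-sorted into six equal bins by GFP/DsRed ratio, decoded by Illumina sequencing, PSI is the read-weighted mean bin number.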

Sequence | protein stability index [1] | protein stability index [2] | protein stability index [3] | protein stability index [4]
WNHIRLQRTAKGKPVLAKDSSNPY [AASDHPPT] | 2.9 ± 0.39 | 3.19 ± 0.3 |  | 
SLVMGSQTESALSKKLRAILPKQS [LCOR] | 2.71 ± 0.21 | 2.95 ± 0.37 |  | 
LEGAQAPLAVEEDASSSTSTSSSF [MAGEA10] | 5.66 ± 0.14 | 5.55 ± 0.2 |  | 
RDIDLKNRRGGPPFAFVEFEDPRD [SRSF1] | 4.03 ± 0.35 | 4.27 ± 0.18 |  | 
LSMDEKVELYRIKFKESFAEMNRG [COX4I1] | 2.9 ± 0.2 | 2.97 ± 0.21 |  | 
DWMAAMFGGPFVESSTREVVFPYT [RHOBTB2] | 2.23 ± 0.3 | 2.04 ± 0.47 |  | 
HIFNTLRSHLIDKGMLTSTTEDE [CDS2] |  |  | 2.71 ± 0.042 | 3.23 ± 0.39
RRYVASVSLHDRIYVIGGYDGRSR [KLHL12] | 2.53 ± 0.31 | 2.49 ± 0.5 |  | 
LQDVRVNQSRCEMKTFVSPEAISP [TRIM15] | 4.01 ± 0.17 | 4.09 ± 0.29 |  | 
SSPMVQVDEKGEKVRPSHKRCIVI [LARP4] | 2.69 ± 0.16 | 2.63 ± 0.12 |  | 
LEDTCKTIEECCRKQKQELCEKFD [TRIM55] | 4.86 ± 0.094 | 4.74 ± 0.25 |  | 
LILFAWGTLLFYIGGHLVRDNDHP [FUT8] | 2.95 ± 0.19 | 3.36 ± 0.47 |  | 
LPCSSYIDSYDPSTGEVYCRVPNS [ALDH8A1] | 2.65 ± 0.22 | 2.88 ± 0.24 |  | 
AYLELEITLSQEQIQKYTDCLQFY [RTN1] | 2.57 ± 0.4 | 3.04 ± 0.86 |  | 
YGQGRKIAEVCCTSIVYATEKKQT [KCTD10] | 2.83 ± 0.34 | 3.1 ± 0.21 |  | 
MASSAASSEHFEKLHEIFRGLHED [VTI1B] | 4.29 ± 0.16 | 4.28 ± 0.1 |  | 
KMELLILETQAQVCQALAQVDGGA [CPOX] | 2.14 ± 0.52 | 2.18 ± 0.52 |  | 
KIGFEIGIENEEDTSKQKKMETMY [ZNF449] | 4.08 ± 0.29 | 4.07 ± 0.22 |  | 
KAILEQNFRDLVRDLEKQKEEVRA [TRIM29] | 4.43 ± 0.31 | 4.48 ± 0.24 |  | 
NKINAGMYILSPAVLRRIQLQPTS [GMPPB] | 2.24 ± 0.24 | 2.28 ± 0.38 |  | 
VVAYLALAALSATISFRIYKSVLQ [RTN1] | 2.7 ± 0.66 | 2.87 ± 0.43 |  | 
ASSASAFLTAPLLEFLLALYFLFA [CMTM3] | 2.34 ± 0.79 | 2.63 ± 0.88 |  | 
DQDLDALMADLVADISEAEQRTIQ [APBB1IP] | 4.48 ± 0.36 | 4.56 ± 0.21 |  | 

Sequence | protein stability index [1] | protein stability index [2] | protein stability index [3] | protein stability index [4]
LSDTELTTLLRRYNIPHGPVVGST [EMD] | 2.74 ± 0.38 | 2.69 ± 0.26 |  | 
LFSLKESPEKFQIEANFPRRVLPC [FAF2] | 2.61 ± 0.3 | 2.84 ± 0.24 |  | 
KYDYLMTLHGVVNESTVCLMSYER [TENT5D] | 2.38 ± 0.34 | 2.36 ± 0.22 |  | 
LIQDSPDSSTSPKGKQPTSAENSV [NANOGP8] | 5.23 ± 0.11 | 5.17 ± 0.17 |  | 
QYEVSNFARNGALSTHNWTYWQCG [RSAD1] | 2.43 ± 0.25 | 2.05 ± 0.23 |  | 
SSSTLMSSELETTSFFDSDEDDST [DVL3] | 5.54 ± 0.38 | 5.61 ± 0.14 |  | 
EDFLLKKPIVPTDGKRVIVVFHCE [CDC25A] | 2.37 ± 0.55 | 2.25 ± 0.64 |  | 
PPGPDRLPSNLVQYYDDEKKTWKI [KLHL14] | 4.87 ± 0.082 | 4.7 ± 0.33 |  | 
CTLRQKLIFSPCSDCEEEEEEEEE [WEE1] | 5.04 ± 0.27 | 5 ± 0.26 |  | 
IMALVAAILLLVIIILIVMKYRT [VAMP4] |  |  | 3.07 ± 0.33 | 3.16 ± 0.07
FTGSQPTAERITQLSAPHCKKLSL [ALDH8A1] | 2.89 ± 0.5 | 3.46 ± 0.35 |  | 
RFFASSSLHHTSECTQMDHLGCMH [ALDH8A1] | 2.87 ± 0.22 | 2.85 ± 0.32 |  | 
ETRDWGGAQFEGEKGRALQIRDWR [ZSWIM9] | 3.63 ± 0.32 | 3.84 ± 0.15 |  | 
VAREDVRESCPPLGLETLKITDFQ [CPXM2] | 3.96 ± 0.48 | 4.09 ± 0.33 |  | 
DIKAAFAPFGRISDARVVKDMATG [TIA1] | 3.31 ± 0.16 | 3.18 ± 0.4 |  | 
SQNIAAETRAEDPPWFEGLESRFQ [DFFB] | 4.46 ± 0.13 | 4.49 ± 0.079 |  | 
RLPNRQLISCSEDGSVRIWELREK [WDR41] | 3.23 ± 0.2 | 3.31 ± 0.42 |  | 
LEQRRQQASEREAPSIEQRLQEVR [FCHSD1] | 5.37 ± 0.32 | 5.26 ± 0.12 |  | 
SGIGREGAKDSYDFFTEIKTITVK [ALDH8A1] | 3.27 ± 0.37 | 3.28 ± 0.4 |  | 
EVCCTSIVYATEKKQTKVEFPEAR [KCTD13] | 3.88 ± 0.34 | 3.9 ± 0.28 |  | 
HLANHDDLISKSFQGSQGRAYLFN [YPEL3] | 2.8 ± 0.075 | 3.03 ± 0.24 |  | 
LKGTLVSTLKEVKPTVFIGVPQIW [ACSBG2] | 2.65 ± 0.2 | 3.5 ± 0.61 |  | 
ADRCSPKEDQAWDGASQDCPPLPA [FBXO34] | 5.27 ± 0.18 | 4.99 ± 0.14 |  | 

Sequence | protein stability index [1] | protein stability index [2] | protein stability index [3] | protein stability index [4]
VDAAYANKVELQAKVESMDQEIKF [KRT71] | 4.88 ± 0.41 | 4.87 ± 0.21 |  | 
HFVDEHGKDQGINIRQKVKELVEF [CLINT1] | 3.26 ± 0.23 | 3.83 ± 0.28 |  | 
PNDEVHPLLGVKGDGKSKKKQAGR [RBBP5] | 5.35 ± 0.27 | 5.2 ± 0.35 |  | 
PVGLVMEYMETGSLEKLLASEPLP [RIPK4] | 3.46 ± 0.48 | 3.13 ± 0.22 |  | 
GTNTVSFYTLSPNSHFSLNVKTLK [PCDHGC5] | 2.4 ± 0.39 | 2.51 ± 0.21 |  | 
DPAYIAVLVLIFNAAKTCPTMPAL [INTS4] | 3.12 ± 0.56 | 3.09 ± 0.47 |  | 
IQVEDIRIRAILSTYRKRTPVMEG [LOXL2] | 2.13 ± 0.48 | 2.16 ± 0.35 |  | 
LVKDNPQRSYFLRIFDIKDGKLLW [WASL] | 1.99 ± 0.28 | 2.05 ± 0.36 |  | 
PALETQPQGDEEDIASRYPTLWTE [SMOC2] | 4.78 ± 0.34 | 4.85 ± 0.54 |  | 
ADSGADPKGEPGSKQSPPMASSPI [FBF1] | 5.44 ± 0.26 | 5.51 ± 0.15 |  | 
IQGQNKEMLAAACQMFLGKTEAEI [FLOT1] | 3.49 ± 0.15 | 3.42 ± 0.33 |  | 
TKPSKSAALHIDLCKATSPADALQ [INTS4] | 3.91 ± 0.1 | 3.84 ± 0.29 |  | 
FLLLIVFYTAITKKIFKSHLKSSR [P2RY14] | 2.69 ± 0.42 | 2.52 ± 0.65 |  | 
RVERRFHFSQSLTVIHDFLFSLKE [FAF2] | 2.17 ± 0.15 | 2.44 ± 0.23 |  | 
LENELDLKLVSFSKLCTSYSHSST [GOSR1] | 2.98 ± 0.13 | 2.93 ± 0.16 |  | 
YKMDHRRRGIALIFNHERFFWHLT [CASP6] | 2.4 ± 0.72 | 2.2 ± 0.47 |  | 
RRNEETPEEGQQPWLCGESFTLAD [GDAP1] | 5.02 ± 0.13 | 4.99 ± 0.3 |  | 
GGLVVSAASLAGCLGALCENTCLL [TSPAN10] | 2.79 ± 0.57 | 2.67 ± 0.54 |  | 
RENMSDGDTSATESGDEVPVELYT [KMT2E] | 5.32 ± 0.21 | 5.21 ± 0.22 |  | 
LVQLEDEITTLRQVLSAKERHLVE [TPD52L1] | 2.85 ± 0.16 | 3.04 ± 0.44 |  | 
GSKARAEGRGPVTPLHLDLTQLHR [PLEKHN1] | 3.52 ± 0.061 | 3.835 ± 0.001 |  | 
IQPSSEGLGPTSEPFPSSDDSPRS [SPAG8] | 5.41 ± 0.21 | 5.35 ± 0.15 |  | 
LQEKSQCALEEYVRSQYPNQPTRF [NR2F2] | 3.16 ± 0.25 | 3.24 ± 0.24 |  | 

Sequence | protein stability index [1] | protein stability index [2] | protein stability index [3] | protein stability index [4]
ATNSSWVVVFKALVTTHHLMVHGN [SNAP91] | 3.43 ± 0.31 | 3.4 ± 0.28 |  | 
MLSLKKYLTEGLLQFTILLSLIGV [NFE2L1] | 3.33 ± 0.27 | 2.82 ± 0.47 |  | 
VFRWLAYSYASTHRLMTDARRRVC [CPXM2] | 2.35 ± 0.32 | 2.54 ± 0.32 |  | 
ITWNRVVLLHGPPGTGKTSLCKAL [TRIP13] | 2.32 ± 0.58 | 2.13 ± 0.2 |  | 
RKVKSTITLDGGVLVHVQKWDGKS [FABP4] | 3 ± 0.23 | 3.15 ± 0.52 |  | 
EWVISTGHDKCVSWMCTRSGNMLG [WDFY1] | 2.09 ± 0.37 | 2.01 ± 0.41 |  | 
KFPPEEELQREWLGNREALIQFLE [CPN1] | 3.69 ± 0.18 | 3.8 ± 0.18 |  | 
RYFYLLENIAWVKSYNICFELEDS [PDS5B] | 2.75 ± 0.2 | 2.05 ± 0.61 |  | 
SSASEGDEDLRRQMQDDEQKTRLL [PALM] | 5.51 ± 0.15 | 5.49 ± 0.19 |  | 
VFDCLKDGMRNKETLEGREKAFIA [MED27] | 3.88 ± 0.28 | 3.91 ± 0.25 |  | 
GGKSGELEQEEERLSKEWEDSKRW [CHGA] | 5.3 ± 0.33 | 5.07 ± 0.32 |  | 
MARVAWGLLWLLLGSAGAQYEKYS [P3H4] | 3.18 ± 0.83 | 3.16 ± 0.48 |  | 
MVLLTMIARVADGLPLAASMQEDE [SEC22B] | 3.26 ± 0.71 | 2.94 ± 0.2 |  | 
SASHRPCVNGDVDKPSEPASEEGS [SMG5] | 5.49 ± 0.17 | 5.641 ± 0.046 |  | 
MFSFNMFDHPIPRVFQNRFSTQYR [UFD1] | 2.13 ± 0.17 | 2.22 ± 0.22 |  | 
GDGVPPRSLQDGTREGFGHSTSLK [LCOR] | 5.08 ± 0.24 | 4.92 ± 0.22 |  | 
QNVARIPEFELLWKDIIHNPQALS [INTS3] | 2.47 ± 0.34 | 2.53 ± 0.3 |  | 
INRADYCPECYPDNPANRSLVLPW [TOR1AIP2] | 2.29 ± 0.33 | 2.76 ± 0.55 |  | 
LCHCGKAFSHKSMRDRHVNMHLNL [ZBTB22] | 2.21 ± 0.45 | 2.32 ± 0.14 |  | 
RWALLSCRGKKPSRIYGQAMAIIN [KLHDC10] | 2.32 ± 0.55 | 2.18 ± 0.32 |  | 
